For two molecules, Kd, koff and kon results are on record in paper PMC12319226 (Frontiers in Bioinformatics, 2025).

Holding throughout (test): BLI
Conditions in all cases: both partners purified

In assay [1] the target is T1, factor H binding protein variant 1.1 (Neisseria meningitidis serogroup B …, UniProt Q9JXV4).
T1 construct: also called fHbp v1.1; v1.1 Control (0001)

Another assay has as its target T2, fHbp m001767 (Neisseria meningitidis fHbp v3.28, …, point mutant).
T2 chain: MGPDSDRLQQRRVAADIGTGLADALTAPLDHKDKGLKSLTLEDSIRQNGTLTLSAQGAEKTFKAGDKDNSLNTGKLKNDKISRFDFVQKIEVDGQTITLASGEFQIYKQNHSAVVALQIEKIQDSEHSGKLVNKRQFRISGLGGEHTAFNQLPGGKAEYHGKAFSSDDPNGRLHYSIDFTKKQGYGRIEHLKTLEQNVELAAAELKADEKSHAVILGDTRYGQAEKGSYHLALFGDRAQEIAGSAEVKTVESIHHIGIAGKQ

The next assay has as its target T3, fHbp m001820 (Neisseria meningitidis fHbp v3.28, …, point mutant).
T3 chain: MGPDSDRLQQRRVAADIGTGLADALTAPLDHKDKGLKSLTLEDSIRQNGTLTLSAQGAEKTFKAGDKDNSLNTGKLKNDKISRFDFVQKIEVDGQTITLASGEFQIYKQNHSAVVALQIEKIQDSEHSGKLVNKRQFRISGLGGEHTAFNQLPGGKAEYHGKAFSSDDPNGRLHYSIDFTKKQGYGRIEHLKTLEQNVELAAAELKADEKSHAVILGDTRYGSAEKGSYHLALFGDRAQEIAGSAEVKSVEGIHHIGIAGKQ

The next assay deals with T4, fHbp m001213 (Neisseria meningitidis fHbp v3.28-based …, point mutant).
T4 chain: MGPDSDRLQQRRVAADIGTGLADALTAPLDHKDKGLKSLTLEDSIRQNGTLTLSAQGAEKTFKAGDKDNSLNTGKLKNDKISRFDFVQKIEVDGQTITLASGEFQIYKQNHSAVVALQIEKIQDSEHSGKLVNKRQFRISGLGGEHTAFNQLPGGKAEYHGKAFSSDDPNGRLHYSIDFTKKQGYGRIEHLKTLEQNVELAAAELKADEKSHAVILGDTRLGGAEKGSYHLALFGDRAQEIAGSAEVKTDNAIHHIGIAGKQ

A further assay concerns the target T5, fHbp m001832 (Neisseria meningitidis fHbp v3.28, …, chimera).
T5 chain: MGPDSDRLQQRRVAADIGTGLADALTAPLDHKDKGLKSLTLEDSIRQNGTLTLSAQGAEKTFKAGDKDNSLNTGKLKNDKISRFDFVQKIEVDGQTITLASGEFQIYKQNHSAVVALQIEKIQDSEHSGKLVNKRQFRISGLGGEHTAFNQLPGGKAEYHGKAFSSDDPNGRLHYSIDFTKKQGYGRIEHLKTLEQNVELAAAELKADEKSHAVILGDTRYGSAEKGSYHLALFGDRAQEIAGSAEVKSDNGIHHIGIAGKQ

B1: chimeric antibody h12C1 (antibody, V domains shown)
VH: QVQLQESGPELVKPGASVKISCKASGYSFSDYNMSWVKQSNGKSLEWIGIIDPKYGTINYNQKFKGKATLTVDQASSTAYMQLNSLTSEDSAVYYCVRDYYGSSYFDYWGQGTTLTVSS
VL: DIVLTQSPSSIYASLGERVTLTCKASQDIHNYLNWFQQKPGKSPKTLIYRANRLVDGVPSRFSGGGSGQDYSLTISSLEFEDIGIYYCLQYDEFPPTFGGGTRLEIK
notes: also called humanized 12C1; source: Expi293, purified (MabSelect SuRe, SEC); copies: 2 + 2
As for B1, in assay [1], the Kd – broadly, the constant that tells how readily two partners part at equilibrium – was 391 pM; the koff (usually a measure of how fast the partners let go of each other) was 0.000273 s⁻¹; the kon (usually a measure of how fast the partners come together) stood at 697400 ± 1920 M⁻¹ s⁻¹.

B2: mAb 1E6 (human) (antibody, V domains shown)
VH: EVQLVQSGAEVKKPGSSVKVSCKASGGTVIDYPITWVRQAPGQGLEWVGGFVPLFRTSNYGQKFQGRVTITADKSTSTASMELNSLTSEDTAIYYCARGDTAMGPFDYWGQGTLVTVSS
VL: SYVLTQPPSLSVAPGKTATLTCGGNNIAGKTVHWYQQRPGQAPVLVISYDSDRPSGIPERFSGSNSANTATLTISRVEAGDEADYYCQVWDRNSDHWVFGGGTKLTVL
notes: source: Expi293, purified (MabSelect SuRe, SEC); copies: 2 + 2
B2: the Kd was found to be 131 pM in the assay with fHbp m001767, 531 pM with fHbp m001820, 594 pM in the assay with fHbp m001213 and 435 pM with fHbp m001832. Moreover, the koff with fHbp m001767 was determined as 4.68e-05 s⁻¹; in the assay with fHbp m001820 it was 0.000171 s⁻¹; with fHbp m001213, 0.000262 s⁻¹; with fHbp m001832 it was 0.00016 s⁻¹. Moreover, the on-rate constant (kon) was 358200 ± 2140 M⁻¹ s⁻¹ with fHbp m001767, 322300 ± 1430 M⁻¹ s⁻¹ with fHbp m001820, 440700 ± 1810 M⁻¹ s⁻¹ with fHbp m001213 and 367800 ± 1240 M⁻¹ s⁻¹ with fHbp m001832.
